“And” between values parts separate entries of the source, which are not always exact repeats. Identical values can stand only once.
Experiments:
AUC = molecular target: the molecule itself; assay: AUC
[1] = molecular target: the molecule itself; assay: SEC; analytical Superdex 200, sample diluted in buffer with 2 mM ATP; 50 mM Tris pH 8.0, 200 mM NaCl, 0.2% β-mercaptoethanol; 3 µg/µl protein
[2] = molecular target: the molecule itself; assay: SEC; analytical Superdex 200, sample diluted in buffer with 2 mM adenosine; 50 mM Tris pH 8.0, 200 mM NaCl, 0.2% β-mercaptoethanol; 3 µg/µl protein
[3] = molecular target: the molecule itself; assay: SEC; analytical Superdex 200, no ligand; 50 mM Tris pH 8.0, 200 mM NaCl, 0.2% β-mercaptoethanol; 3 µg/µl protein; size by calibration proteins

B1: Archaeoglobus fulgidus Rio1 kinase Y200D mutant (enzyme, UniProt O28471 1-258, looked up)
chain: MKDLKKIESYLDKLRIKEKDGEERKIYAEVLDGRTLKTLYKLSAKGYITAMGGVISTGKEANVFYADGVFDGKPVAMAVKIYRIETSEFDKMDEYLYGDERFDMRRISPKEKVFIWTEKEFRNLERAKEAGVSVPQPYTYMKNVLLMEFIGEDELPAPTLVELGRELKELDVEGIFNDVVENVKRLYQEAELVHADLSEDNIMYIDKVYFIDMGQAVTLRHPMAESYLERDVRNIIRFFSKYGVKADFEEMLKEVKGE
notes: Rio1 kinase of Archaeoglobus fulgidus, full length, with Tyr 200 mutated to Asp; also called afRio1 Y200D; afRio1Y200D
stoichiometry N (AUC): 4 and 3

B2: human Rio1 kinase, residues 106 to 494, unphosphorylated (domain or fragment, UniProt Q9BRS2 106-494, looked up)
chain: STPADKVLRKFENKINLDKLNVTDSVINKVTEKSRQKEADMYRIKDKADRATVEQVLDPRTRMILFKMLTRGIITEINGCISTGKEANVYHASTANGESRAIKIYKTSILVFKDRDKYVSGEFRFRHGYCKGNPRKMVKTWAEKEMRNLIRLNTAEIPCPEPIMLRSHVLVMSFIGKDDMPAPLLKNVQLSESKARELYLQVIQYMRRMYQDARLVHADLSEFNMLYHGGGVYIIDVSQSVEHDHPHALEFLRKDCANVNDFFMRHSVAVMTVRELFEFVTDPSITHENMDAYLSKAMEIASQRTKEERSSQDHVDEEVFKRAYIPRTLNEVKNYERDMDIIMKLKEEDMAMNAQQDNILYQTVTGLKKDLSGVQKVPALLENQVEERT
notes: Rio1 kinase, human, residues 106 to 494; monomer MW 45.1 kDa as printed; also called hRio1; unphosphorylated hRio1; source: size exclusion; purified in the presence of 1 mM adenosine to prevent autophosphorylation
stoichiometry N [1]: 2
stoichiometry N [2]: 4

B3: autophosphorylated human Rio1 kinase, residues 106 to 494 (domain or fragment, UniProt Q9BRS2 106-494, looked up)
chain: STPADKVLRKFENKINLDKLNVTDSVINKVTEKSRQKEADMYRIKDKADRATVEQVLDPRTRMILFKMLTRGIITEINGCISTGKEANVYHASTANGESRAIKIYKTSILVFKDRDKYVSGEFRFRHGYCKGNPRKMVKTWAEKEMRNLIRLNTAEIPCPEPIMLRSHVLVMSFIGKDDMPAPLLKNVQLSESKARELYLQVIQYMRRMYQDARLVHADLSEFNMLYHGGGVYIIDVSQSVEHDHPHALEFLRKDCANVNDFFMRHSVAVMTVRELFEFVTDPSITHENMDAYLSKAMEIASQRTKEERSSQDHVDEEVFKRAYIPRTLNEVKNYERDMDIIMKLKEEDMAMNAQQDNILYQTVTGLKKDLSGVQKVPALLENQVEERT
modifications: autophosphorylated; site not given
notes: Rio1 kinase, human, residues 106 to 494, autophosphorylated; Same construct as m4, autophosphorylated in vitro; also called phosphorylated hRio1; autophosphorylated hRio1; source: purified hRio1 incubated at 25°C for 1 hr in 50 mM Tris pH 8.0, 200 mM NaCl, 2 mM MgCl2 and 0.2% β-mercaptoethanol
stoichiometry N [3]: 2

Reference: paper PMC3358306 (PLoS ONE, 2012)
